Assay results published in patent US20050026838A1.
Each block holds one molecule with its values, some of them ahead of it.

Target: [125I]-FGF-1 binding sites on membranes prepared from adult rat cortex
Experiment: displacement of [125I]-FGF-1 by unlabelled FGF, membranes prepared from adult rat cortex

IC50: 0.2 nM
Molecule: FGF-2 (basic FGF) (from UniProt P09038 143-288) (ligand)

IC50: 1 nM
B1: Fibroblast Growth Factor 13 (recombinant human FGF-13, expressed in Escherichia coli) (ligand)
chain: MQGENHPSPNFNQYVRDQGAMTDQLSRRQIREYQLYSRTSGKHVQVTGRRISATAEDGNKFAKLIVETDTFGSRVRIKGAESEKYICMNKRGKLIGKPSGKSKDCVFTEIVLENNYTAFQNARHEGWFMAFTRQGRPRQASRSRQNQREAHFIKRLYQGQLPFPNHAEKQKQFEFVGSAPTRRTKRTRRPQPLT
